From paper doi:10.1101/2024.12.09.627393 (bioRxiv, 2024)

Target: T1, histone H4K5acK8acK12acK16ac residues 1–23 peptide (dCypher) (UniProt P62805 2-24, acetyl-lysine at 5, 8, 12 and 16)
T1 construct: histone H4 residues 1-23; also called H4Tetra^ac
Assay: AlphaScreen or HTRF; dCypher: GST-CECR2-BRD titrated against histone peptides (100 nM); glutathione Acceptor and streptavidin Donor beads; 50 mM Tris pH 7.5, 50 mM NaCl, 0.01% Tween-20, 0.01% BSA, 1 mM TCEP, 0.0004% Poly-L-Lysine; room temperature; relative EC50 (EC50^rel)
Conditions: both partners purified

B1: GST-CECR2-BRD (GST tag retained, for dCypher assays) (domain or fragment)
chain: not shown
notes: human CECR2 bromodomain, amino acids 424-538 of UniProt Q9BXF3-1, codon optimized for E. coli, in pGEX-6P-1; PreScission Protease site between GST and the bromodomain; source: E. coli BL21(DE3) pLysS, purified (glutathione agarose, eluted with reduced glutathione, dialysed); not shown: GST, N-terminal, kept
Q: For B1, which EC50 is on record?
A: 7.2 nM
